The source of these data is article PMC12241602.

In experiment [1] the target is His6-MadB (class I lantibiotic dehydratase MadB) (Clostridium sp. Maddingley). Kind of experiment: SEC-MALS; 100 uL of 20 uM MadB on Superdex 200 10/300 Increase, 50 mM HEPES pH 8.0, 200 mM NaCl, 0.5 mL/min. (In general: Size exclusion chromatography separates by hydrodynamic size, large species first.)
Experiment [2] has the same target. Description: cryo-EM structure; single particle cryo-EM of purified apo MadB and of MadB with MadL3, C2 symmetry imposed.
Experiment [3] shares this target. Kind of experiment: nanoDSF; 2 uM His6-MadB with or without 10 uM ligand peptide, 10 min at room temperature, 50 mM HEPES, 500 mM NaCl, pH 7.5, ramp 1 °C/min from 25 to 95 °C, intrinsic fluorescence 330/350 nm. (Differential scanning fluorimetry follows unfolding on heating by fluorescence.)

Usually stoichiometry N stands for the number of molecules, sites or subunits per partner or assembly.

Consider “His6-MadB (class I lantibiotic dehydratase MadB) (enzyme)”, for which the stoichiometry N in experiment [1] and in experiment [2] was 2 each time.
In the case of “MadL1 (isolated leader peptide of maddinglicin A)”, the Tm shift in experiment [3] came to 1.8 °C.
